{
  "source": "paper PMC11277097",
  "about": "“MRAP2a Binds and Modulates Activity and Localisation of Prokineticin Receptor 1 in Zebrafish” (International Journal of Molecular Sciences, 2024)",
  "key": {"[1]": {"target": "the molecule itself", "test": "SDS-PAGE; purified zCT-MRAP2a, electrophoresis under denaturing conditions"}, "[2]": {"target": "the molecule itself", "test": "native gel or EMSA; blue native PAGE, 20 ug purified CT-MRAP2 domain on Native PAGE Novex 3% to 16% Bis-Tris gels, 0 °C; blot with anti-His"}},
  "data": [
    {"protein": "C-terminal domain of zebrafish MRAP2a, His-tagged (zCT-MRAP2a) (domain or fragment, UniProt F8W4H9 73-217, looked up, zebrafish MRAP2a, C-terminal domain, the region from residue 73 to residue 217 encoded by the third exon; cloned by PCR from plasmid XM_021473026.1 into pet28; also called zCT-MRAP2a domain; pet 28zCT-MRAP2; source: E. coli, purified (His-tagged protein purification kit)) EAAEPYEKRMRLTSCADGLGRQRETDGRTGLSRPLLEESRSLFHCYINEEEREGGRAATDAGALTHGRSGIGNSRGQVEEVGLVVQNMVLESRAEREAALLAHFNIPNFVNSELNSALGDEDLLLGDPPIIMEEARPRCTHHIID", "values": [
      {"measurement": "stoichiometry N", "setting": "[1]", "value": 2},
      {"measurement": "stoichiometry N", "setting": "[2]", "value": "~2"}
    ]}
  ]
}
